Measurements as given in patent US12325863B2, “MDA-7/IL-24 secretory variants and methods of use” (Virginia Commonwealth University, priority 2018, dated 2025).

Legend:
[1] = Sabutoclax and BI-97D6 in combination with MDA-7/IL-24; details: combined with MDA-7/IL-24; earlier observation referred to
Experimental: To test a multi-target approach for treatment of prostate cancer bone metastases, experiments were conducted to target Mcl-1 inhibition and investigate the effects on NG-mda-7/IL-24 efficacy. […] In addition to these inhibitors, three commercially available targeted inhibitors were evaluated to determine potential synergistic effects with MDA-7/IL-24. […] Next, the therapeutic effect of MDA-7/IL-24 protein in combination with BI-97D6 was tested, in male athymic nude mice injected by the intracardiac route with human prostate cancer PC3-ML cells, resulting in bone metastases.

[2] = tested on: CD11b+Gr-1+ MDSCs; details: single administration 5 mg/kg or 20 mg/kg i.p., 24 hours, spleen; FIG. 33
Experimental: 24 hrs. later, splenic CD11b+Gr-1+ MDSCs were assessed by FACS.
Twenty-four (24) hours later, splenic CD11b^+Gr-1^+ MDSCs were assessed by FACS.

[3] = tested on: prostate cancer bone metastases (RMI-Luc cells); test: RM1-Luc bone metastases, OT-I T cells with or without MDA-7/IL-24 protein; format: in vivo, C57BL/6 mice; details: OT-I in combination with protein i.v. 5 mg/kg body weight, 3 times; FIG. 29
Experimental: (§1) C57BL/6 mice established with experimental bone metastases via intratibial injection of ovalbumin-positive CaP RM1-Luc cells expressing luciferase were treated with OVA-specific T cells (OT-I) alone or in combination with recombinant MDA-7/IL-24 protein i.v. (5 mg/kg body weight, 3 times). Development of bone lesions was monitored by BLI. Luciferase intensity was quantified and is presented graphically.
as §1, with “intra-tibial” for “intratibial”, “prostate cancer RMI-Luc” for “CaP RM1-Luc”, “intravenously” for “i.v.”, “bioluminescent imaging (BLI) (FIG. 29 left panel).” for “BLI.”, “graphically (FIG. 29 graph).” for “graphically.”

[4] = tested on: breast cancer cells; test: ER stress response and surface calreticulin in breast cancer cells; format: cell-based, mouse
From the text: FIGS. 41A-41C show example images illustrating that MDA-7/IL-24 therapy enhances immunogenicity of mouse mammary tumors. FIG. 41A: immunogenic BCa cell death induced by MDA-7/IL-24 therapy. BALB/c mice were immunized with irradiated, Ad.mda-7 (1,2) or Ad.null (3,4) infected 4T1 cells (MOI=1), challenged with live 4T1 cells. The images were taken two weeks' post-tumor challenge. […] FIG. 41C: MDA-7/IL-24 therapy triggers the surface presence of CRT, assessed by immunofluorescence staining (left) and immunoblotting analysis of plasma membrane or cytosolic fractions (right).
Immunogenic breast cancer cell death was induced by MDA-7/IL-24 therapy. BALB/c mice were immunized with irradiated, Ad.mda-7 (mouse 1 and 2) or Ad.null (mouse 3 and 4) infected 4T1 cells (MOI=1), and then challenged with live 4T1 cells. The images were taken two weeks' post-tumor challenge.

[5] = tested on: IFN-γ-producing CD8+ T cells; test: IFN-γ-producing CD8+ T cells in lymph nodes after i.v. protein; format: in vivo, C57BL/6 mice; details: 10 μg i.v., 48 hours, lymph node cells; FIG. 31B
Experimental: (§2) FIGS. 31A-31B show example results illustrating that MDA-7/IL-24 promotes T cell expansion and activation. FIG. 31A: CD8+ T cells were stimulated with anti-CD3/CD28 antibodies in the presence or absence of purified MDA-7/IL-24 protein (20 ng/ml). Cell proliferation was measured using ^3H-thymidine (TdR) incorporation assays. p<0.05. FIG. 31B: C57BL/6 mice were injected i.v. with MDA-7/IL-24 protein (10 μg) or PBS. 48 h later, lymph node cells were assessed for IFN-γ-producing CD8+ T cells by intracellular staining.
(§3) In subsequent experiments, CD8^+ T cells were stimulated with anti-CD3/CD28 antibodies in the presence or absence of purified MDA-7/IL-24 protein (20 ng/ml). Cell proliferation was measured using ^3H-thymidine (TdR) incorporation assays. p<0.05. […] C57BL/6 mice were injected intravenously with MDA-7/IL-24 protein (10 μg) or PBS; 48 hours later, lymph node cells were assessed for IFN-γ-producing CD8^+ T cells by intracellular staining.

[6] = tested on: CD8+ T cells; test: 3H-thymidine incorporation in stimulated CD8+ T cells; format: cell-based; details: anti-CD3/CD28 stimulation, 20 ng/ml, p<0.05; FIG. 31A
Experimental: as §2, §3

[7] = tested on: human prostate cancer PC3-ML cells; test: PC3-ML intracardiac bone metastasis model in athymic nude mice; format: in vivo; details: single agent, versus control group
Experimental: To test a multi-target approach for treatment of prostate cancer bone metastases, experiments were conducted to target Mcl-1 inhibition and investigate the effects on NG-mda-7/IL-24 efficacy. Using NMR (nuclear magnetic resonance) and computational biology, two Mcl-1 inhibitors were identified (Sabutoclax and BI-97D6) and their activity was validated in immune competent mice in combination with MDA-7/IL-24. In addition to these inhibitors, three commercially available targeted inhibitors were evaluated to determine potential synergistic effects with MDA-7/IL-24. The three inhibitors were UMI-77 (showing selectivity to Mcl-1 over other members of the Bcl-2 family), Marinopyrrole A (selective inhibitor of Mcl-1), and A-1210477. […] Mcl-1 expression was elevated by 1.7-fold in RM1-BM (RM1-BM cells selected for enhanced metastasis to bone) as compared to RM1 cells, indicating functional relevance of Mcl-1 in this metastatic process. […] This further supported the cancer-specificity of specific Mcl-1 inhibitors. Next, the therapeutic effect of MDA-7/IL-24 protein in combination with BI-97D6 was tested, in male athymic nude mice injected by the intracardiac route with human prostate cancer PC3-ML cells, resulting in bone metastases.

Molecule | antitumor synergy [1] | frequency of CD11b+Gr-1+ MDSCs [2] | therapeutic potency of ATT on bone metastases (BLI) [3] | surface calreticulin (immunofluorescence, immunoblotting) ([4]; FIG. 41C) | ER stress response ([4]; GRP78/BiP, GRP170, FIG. 41B) | frequency of IFN-γ-expressing CD8+ T cells [5] | T cell proliferation (3H-thymidine incorporation) [6] | bone metastases [7]
Cc1cc2c(C(=O)NC[C@H](C)c3ccccc3)c(O)c(O)cc2c(O)c1-c1c(C)cc2c(C(=O)NC[C@H](C)c3ccccc3)c(O)c(O)cc2c1O [BI-97C1, Sabutoclax] | antitumor synergy | substantially reduced the frequency of CD11b^+Gr-1^+ MDSCs |  |  |  |  |  | 
MDA-7/IL-24: Melanoma differentiation associated gene-7/Interleukin-24, secreted protein of the IL-10 family (protein) QEFHFGPCQVKGVVPQKLWEAFWAVKDTMQAQDNITSARLLQQEVLQNVSDAESCYLVHTLLEFYLKTVFKNYHNRTVEVRTLKSFSTLANNFVLIVSQLQPSQENEMFSIRDSAHRRFLLFRRAFKQLDVEAALTKALGEVDILLTWMQKFYKL |  |  | significantly enhanced the therapeutic potency of ATT | triggers the surface presence of calreticulin (CRT) | upregulation of ER-resident chaperones | increased the frequency of IFN-γ-expressing CD8^+ T cells | significantly enhanced the proliferation of T cells | statistically significant inhibition of bone metastases
